Measured values published in the supplement of paper PMC9170038.

System: MS2 coat protein
Assay: apparent KD of MS2 coat protein; designed switch direction (-1 OFF switch, 1 ON switch): 1; higher = weaker reporter binding
Outline: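 Transcription of designed RNA switches on Illumina chips was done by stalled E. coli RNA polymerase. SNAP-549-labelled MS2 coat protein was then titrated in doubling steps from 0.7 or 1.5 nM to 3 µM, with steps of 0.8–1.5 h at the lowest and 10–20 min at the highest concentration. The per-design median over clusters of curve-fitted normalised fluorescence is reported as apparent KD.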

[1] = input ligand: microRNA oligo, concentration not stated
[2] = Eterna round: R95, input ligand: FMN 200 uM
[3] = Eterna round: R95, input ligand: microRNA oligo, concentration not stated
[4] = Eterna round: R95, input ligand: none

## ACCCGCGGGCCACAUGAGGAUCACCCAUGUGACCGGUGAUCCAAGGAUAUACGUGUCAUUGACGCGUAGAAGGUGGCCAAAACA [Ersooned] (Eterna round: R96, puzzle: Same State NG 3)
Input ligand: FMN 200 uM
  apparent KD of MS2 coat protein: 49.2 nM
[1]
  apparent KD of MS2 coat protein: 22.7 nM
Input ligand: none
  apparent KD of MS2 coat protein: 28.8 nM

## ACGCGGGUAUCACAGGAUAUACUCAUAACUACAUGAGGAUCACCCAUGUGGCGGAAUUCCGGUGCGUAGAAGGGUGAUGGACCGC [Artece] (puzzle: Same State 2)
[2]
  apparent KD of MS2 coat protein: 19.3 nM
[3]
  apparent KD of MS2 coat protein: 28.5 nM
[4]
  apparent KD of MS2 coat protein: 26.9 nM

## ACGUCGAGAUCACAGGAUAUACUCACAUCUACAUGAGGAUCACCCAUGUAGCGGUAUUCCGGUGCGUAGAAGGGUGAUCGACGAC [Same State 2 - Mod of Artece v.5] (puzzle: Same State 2)
[2]
  apparent KD of MS2 coat protein: 14.6 nM
[3]
  apparent KD of MS2 coat protein: 9.7 nM
[4]
  apparent KD of MS2 coat protein: 11.9 nM

## ACGUGGCUGCCGCAGGAUAUACCCUGUUCCACAUGAGGAUCACCCAUGUUUACGAACUAUGAGAGGUAGAAGGGUGGAUGUCAUU [Beenvean] (Eterna round: R96, puzzle: Same State 2)
Input ligand: FMN 200 uM
  apparent KD of MS2 coat protein: 12.2 nM
[1]
  apparent KD of MS2 coat protein: 18.9 nM
Input ligand: none
  apparent KD of MS2 coat protein: 30.7 nM

## ACGUGGCUGCCGCAGGAUAUACCCUGUUCCACAUGAGGAUCACCCAUGUUUACGAACUAUGAGAGGUAGAAGGGUGGAUGUCAUU [Beenvean] (puzzle: Same State 2)
[3]
  apparent KD of MS2 coat protein: 23.7 nM

## ACUAUUUAUGCAGGAUAUGAUUAACAUGAGGAUCACCCAUGUGGUGUUGUGAGUAAGGAGAGUGAUCAGAAGGGCAUUUUUUUU [JMF's solution 75] (Eterna round: R96, puzzle: Same State NG 2)
Input ligand: FMN 200 uM
  apparent KD of MS2 coat protein: 518 nM
[1]
  apparent KD of MS2 coat protein: 297 nM
Input ligand: none
  apparent KD of MS2 coat protein: 359 nM

## ACUGCAAUUAACGCCUACAUGAGGAUCACCCAUGUAUGUAGGCAGGAUAUCGUUUGCUUUGCAAACGAGAAGGGCUGUAGUAGC [salish99_SSNG3_R04_003] (Eterna round: R96, puzzle: Same State NG 3)
Input ligand: FMN 200 uM
  apparent KD of MS2 coat protein: 59.1 nM
[1]
  apparent KD of MS2 coat protein: 59.4 nM
Input ligand: none
  apparent KD of MS2 coat protein: 64.1 nM

## AGAGAACAUGAGGAUCACCCAUGUGGGAUGGGCAUAGGAUAUAGAGGAGAGAGGGAGGAACUAGAAGGAUGAUGGA [JR_SS1_Sub079] (puzzle: Same State 1)
[2]
  apparent KD of MS2 coat protein: 43 nM
[3]
  apparent KD of MS2 coat protein: 103 nM
[4]
  apparent KD of MS2 coat protein: 50.3 nM

## AGAUCAUGACGAGGAUAUGGAACAUGAGGAUCACCCAUGUAUGUUCCAUAACGCGAACGACGAAUCCAGAAGGCGUCGUGGUCA [JL SSNG2 1.09] (Eterna round: R96, puzzle: Same State NG 2)
Input ligand: FMN 200 uM
  apparent KD of MS2 coat protein: 7.15 nM
[1]
  apparent KD of MS2 coat protein: 18.6 nM
Input ligand: none
  apparent KD of MS2 coat protein: 28.3 nM

## AGAUGUUAAUUAGGAUAUGGUCACAUGAGGAUCACCCAUGUAACGAUGAUACGAUGUGGUCAAGACUAGAAGGGAUCGCUAACA [SameState NG2 #72] (Eterna round: R96, puzzle: Same State NG 2)
Input ligand: FMN 200 uM
  apparent KD of MS2 coat protein: 204 nM
[1]
  apparent KD of MS2 coat protein: 86.4 nM
Input ligand: none
  apparent KD of MS2 coat protein: 155 nM

## AGCCUGAGUCGAGGAUAUUAUGGAUCCUUUAAUACAUGAGGAUCACCCAUGUAAUUAAUUAUACAUGAGAAGGCGACUCAGGCA [SSNG2/11-A1] (Eterna round: R96, puzzle: Same State NG 2)
Input ligand: FMN 200 uM
  apparent KD of MS2 coat protein: 10.9 nM
[1]
  apparent KD of MS2 coat protein: 30.4 nM
Input ligand: none
  apparent KD of MS2 coat protein: 129 nM

## AGCGCGGUCUCGCAGGAUAUCCACAUUCCUACAUGAGGAUCACCCAUGUCGCUGCAGGAUAUUAGGGAGAAGGGUGAUGCCGCGG [Quesed] (puzzle: Same State 2)
[2]
  apparent KD of MS2 coat protein: 22.7 nM
[3]
  apparent KD of MS2 coat protein: 42.7 nM
[4]
  apparent KD of MS2 coat protein: 48.4 nM

## AGCUAUUAAUCAGGAUAUAGUGACAUGAGGAUCACCCAUGUAUUAAUGAUGAAAUGUGGUCGCCGCUAGAAGGGAUUACUAACA [SameState NG2 #44] (Eterna round: R96, puzzle: Same State NG 2)
Input ligand: FMN 200 uM
  apparent KD of MS2 coat protein: 67.1 nM
[1]
  apparent KD of MS2 coat protein: 22 nM
Input ligand: none
  apparent KD of MS2 coat protein: 30.1 nM

## AGCUAUUAAUCAGGAUAUAGUGACAUGAGGAUCACCCAUGUAUUGAUGAUUAAAUGUGGUCACCGCUAGAAGGGAUUACUAACA [SameState NG2 #47] (Eterna round: R96, puzzle: Same State NG 2)
Input ligand: FMN 200 uM
  apparent KD of MS2 coat protein: 25.6 nM
[1]
  apparent KD of MS2 coat protein: 23.3 nM
Input ligand: none
  apparent KD of MS2 coat protein: 30.1 nM

## AGCUAUUAAUCAGGAUAUGGUCACAUGAGGAUCACCCAUGUAUAGAUGAUUGAAUGUGGUCUACACUAGAAGGGAUUGCUAACA [SameState NG2 #58] (Eterna round: R96, puzzle: Same State NG 2)
Input ligand: FMN 200 uM
  apparent KD of MS2 coat protein: 167 nM
[1]
  apparent KD of MS2 coat protein: 96.1 nM
Input ligand: none
  apparent KD of MS2 coat protein: 150 nM

## AGCUAUUAAUCAGGAUAUGGUCACAUGAGGAUCACCCAUGUGUAGAUGAUAAAAUGUGGUCAACACUAGAAGGGAUUGCUAACA [SameState NG2 #61] (Eterna round: R96, puzzle: Same State NG 2)
Input ligand: FMN 200 uM
  apparent KD of MS2 coat protein: 26.8 nM
[1]
  apparent KD of MS2 coat protein: 25.1 nM
Input ligand: none
  apparent KD of MS2 coat protein: 37 nM

## AGCUAUUACGAAGGAUAUAGUAACAUGAGGAUCACCCAUGUUUACAUGAUUAAUUGUGAUCACGUCUAGAAGGUUGUACUAACA [SameState NG2 #34] (Eterna round: R96, puzzle: Same State NG 2)
Input ligand: FMN 200 uM
  apparent KD of MS2 coat protein: 33.1 nM
[1]
  apparent KD of MS2 coat protein: 30.2 nM
Input ligand: none
  apparent KD of MS2 coat protein: 37.1 nM

## AGGAAACAUGAGGAUCACCCAUGUAAGAUAUACACAGGAUAUGCGAAAAGAAACAAAGAAGCAGAAGGGUGGAAAA [75%, Ex sub1, 11] (Eterna round: R96, puzzle: Same State 1)
Input ligand: FMN 200 uM
  apparent KD of MS2 coat protein: 16.6 nM
[1]
  apparent KD of MS2 coat protein: 22.7 nM
Input ligand: none
  apparent KD of MS2 coat protein: 43.5 nM

## AGGAGUAUCUGACAUGAGGAUCACCCAUGUUCCAUUCUACGAUAGGAUAUCGAAAUACAAAGACGCGAGAAGGAUCAGAACCUA [Eternabot solution 48] (Eterna round: R96, puzzle: Same State NG 3)
Input ligand: FMN 200 uM
  apparent KD of MS2 coat protein: 23.2 nM
[1]
  apparent KD of MS2 coat protein: 16.5 nM
Input ligand: none
  apparent KD of MS2 coat protein: 26.8 nM

## AGGCAAGCUUUUUGCUGGUAUGAAGGAGAACAUGAGGAUCACCCAUGUAUUAGAGGUGUAGAGGAUUUGAGAAAGAA [JR_SHM208A_Sub003] (puzzle: Sensor for hsa-mir-208a)
[2]
  apparent KD of MS2 coat protein: 96.8 nM
[3]
  apparent KD of MS2 coat protein: 91.8 nM
[4]
  apparent KD of MS2 coat protein: 134 nM

## AGGCCAUCGGGAGGAUAUGGCACCUUAUUGGUGCCAGAAGGUCCAACAUGAGGAUCACCCAUGUGGGAGUGGUCUAAUGACCAC [Fiskers NG1(ss) - 4] (Eterna round: R96, puzzle: Same State NG 1)
Input ligand: FMN 200 uM
  apparent KD of MS2 coat protein: 64.3 nM
[1]
  apparent KD of MS2 coat protein: 58.1 nM
Input ligand: none
  apparent KD of MS2 coat protein: 64 nM

## AGGCUCAGACGAGGAUAUAUGUGGUCACAUGAGGAUCACCCAUGUCUCGAGCUUCGGCUCGAGGCAUAGAAGGCGUCUGAGCCA [SSNG2/5-A1] (Eterna round: R96, puzzle: Same State NG 2)
Input ligand: FMN 200 uM
  apparent KD of MS2 coat protein: 662 nM
[1]
  apparent KD of MS2 coat protein: 16.4 nM
Input ligand: none
  apparent KD of MS2 coat protein: 184 nM

## AGGCUCAGACUAGGAUAUGAUCAUGGCGCUUCGGCGCAUACAUGAGGAUCACCCAUGUAAAGUGAUCAGAAGGAGUCUGAGCCA [SSNG2/7-C1] (Eterna round: R96, puzzle: Same State NG 2)
Input ligand: FMN 200 uM
  apparent KD of MS2 coat protein: 9.82 nM
[1]
  apparent KD of MS2 coat protein: 9.08 nM
Input ligand: none
  apparent KD of MS2 coat protein: 13.6 nM

## AGGGCCGCGGCACAGGAUAUGCACAGGUUCACAUGAGGAUCACCCAUGUGCUCUAGAUAACUUAAGCAGAAGGGUGUCAUGGUAA [Biarrace] (puzzle: Same State 2)
[2]
  apparent KD of MS2 coat protein: 11.2 nM
[3]
  apparent KD of MS2 coat protein: 12 nM
[4]
  apparent KD of MS2 coat protein: 14.1 nM

## AGUAGUUUAACAUGAGGAUCACCCAUGUAUCUAUCUGUAACCUAGGAUAUGGAGGUUUUAUUUAACCAGAAGGAGGAUUGUUUA [JR_SSNG3_Sub044] (Eterna round: R96, puzzle: Same State NG 3)
Input ligand: FMN 200 uM
  apparent KD of MS2 coat protein: 19.8 nM
[1]
  apparent KD of MS2 coat protein: 17.6 nM
Input ligand: none
  apparent KD of MS2 coat protein: 24.2 nM

## AGUCCAGCAUGAGCUGGACAAAAGCAUGUACAUGAGGAUCACCCAUGUCAUGUACAAGCUUUUUGCUCGUCUUAAUA [Mat - hsa-mir-208a - Mod of JL - D35] (puzzle: Sensor for hsa-mir-208a)
[2]
  apparent KD of MS2 coat protein: 513 nM
[3]
  apparent KD of MS2 coat protein: 15.9 nM
[4]
  apparent KD of MS2 coat protein: 534 nM

## AGUCCAGCAUGAGCUGGACAAAAGCAUGUACAUGAGGAUCACCCAUGUUCAUGUACAAGCUUUUUGCUCGUCUUAAU [Mat - hsa-mir-208a - Mod of JL - 61] (puzzle: Sensor for hsa-mir-208a)
[2]
  apparent KD of MS2 coat protein: 549 nM
[3]
  apparent KD of MS2 coat protein: 15.9 nM
[4]
  apparent KD of MS2 coat protein: 698 nM
